Measurements as given in publication PMC6476560 (PLoS ONE, 2019).

B1: wild-type MtbMpa (mycobacterial proteasomal ATPase), hexamer (enzyme)
chain: MGESERSEAFGIPRDSPLSSGDAAELEQLRREAAVLREQLENAVGSHAPTRSARDIHQLEARIDSLAARNSKLMETLKEARQQLLALREEVDRLGQPPSGYGVLLATHDDDTVDVFTSGRKMRLTCSPNIDAASLKKGQTVRLNEALTVVEAGTFEAVGEISTLREILADGHRALVVGHADEERVVWLADPLIAEDLPDGLPEALNDDTRPRKLRPGDSLLVDTKAGYAFERIPKAEVEDLVLEEVPDVSYADIGGLSRQIEQIRDAVELPFLHKELYREYSLRPPKGVLLYGPPGCGKTLIAKAVANSLAKKMAEVRGDDAHEAKSYFLNIKGPELLNKFVGETERHIRLIFQRAREKASEGTPVIVFFDEMDSIFRTRGTGVSSDVETTVVPQLLSEIDGVEGLENVIVIGASNREDMIDPAILRPGRLDVKIKIERPDAEAAQDIYSKYLTEFLPVHADDLAEFDGDRSACIKAMIEKVVDRMYAEIDDNRFLEVTYANGDKEVMYFKDFNSGAMIQNVVDRAKKNAIKSVLETGQPGLRIQHLLDSIVDEFAENEDLPNTTNPDDWARISGKKGERIVYIRTLVTGKSSSASRAIDTESNLGQYL
B2: Pup-Icl1-Fl (fluorescein-labelled pupylated isocitrate lyase 1 Icl1) (complex)
chain 1: MSVVGTPKSAEQIQQEWDTNPRWKDVTRTYSAEDVVALQGSVVEEHTLARRGAEVLWEQLHDLEWVNALGALTGNMAVQQVRAGLKAIYLSGWQVAGDANLSGHTYPDQSLYPANSVPQVVRRINNALQRADQIAKIEGDTSVENWLAPIVADGEAGFGGALNVYELQKALIAAGVAGSHWEDQLASEKKCGHLGGKVLIPTQQHIRTLTSARLAADVADVPTVVIARTDAEAATLITSDVDERDQPFITGERTREGFYRTKNGIEPCIARAKAYAPFADLIWMETGTPDLEAARQFSEAVKAEYPDQMLAYNCSPSFNWKKHLDDATIAKFQKELAAMGFKFQFITLAGFHALNYSMFDLAYGYAQNQMSAYVELQEREFAAEERGYTATKHQREVGAGYFDRIATTVDPNSSTTALTGSTEEGQFH
chain 2: MAQEQTKRGGGGGDDDDIAGSTAAGQERREKLTEETDDLLDEIDDVLEENAEDFVRAYVQKGGE
notes: copies: 4 + 2
B3: Pup-Icl1 (pupylated isocitrate lyase 1 Icl1), unlabelled (complex)
chain 1: B2 chain 1
chain 2: B2 chain 2
notes: copies: 4 + 2

What was measured:
Experiment in all cases: MST
Details in all cases: both partners purified
[1] = target: Pup-PckA-Fl (fluorescein-labelled pupylated phosphoenolpyruvate carboxykinase PckA) (Mycobacterium tuberculosis, UniProt P9WIH3;P9WHN5, PupE (C-terminal glutamine as glutamate))
[2] = target: B1
[3] = target: T1, fluorescently labelled Dop (deamidase of Pup; depupylase) (UniProt P9WNU9 1-505)
T1 sequence: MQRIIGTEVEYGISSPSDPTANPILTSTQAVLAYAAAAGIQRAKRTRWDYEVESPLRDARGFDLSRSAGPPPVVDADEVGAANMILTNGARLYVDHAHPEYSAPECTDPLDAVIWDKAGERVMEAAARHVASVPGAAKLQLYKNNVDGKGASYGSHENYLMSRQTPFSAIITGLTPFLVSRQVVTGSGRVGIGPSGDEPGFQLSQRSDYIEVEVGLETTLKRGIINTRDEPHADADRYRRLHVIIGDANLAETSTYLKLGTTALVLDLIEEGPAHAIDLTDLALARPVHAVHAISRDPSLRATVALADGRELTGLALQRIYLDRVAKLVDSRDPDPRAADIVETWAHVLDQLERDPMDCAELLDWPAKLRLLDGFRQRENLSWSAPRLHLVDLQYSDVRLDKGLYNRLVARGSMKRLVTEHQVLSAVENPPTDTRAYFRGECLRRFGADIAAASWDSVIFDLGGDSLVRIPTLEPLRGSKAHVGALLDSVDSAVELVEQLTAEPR

## B1
[1]
  Kd: 210 ± 100 nM

## B2
[2]
  Kd: 160 ± 30 nM

## B3
[3]
  Kd: 129 ± 41 nM
